Test results as given in paper PMC6166021.

Tested on: T1, NtcA (His6-tagged) (Nostoc sp. PCC 7120), ORF:1390dea6
T1 sequence: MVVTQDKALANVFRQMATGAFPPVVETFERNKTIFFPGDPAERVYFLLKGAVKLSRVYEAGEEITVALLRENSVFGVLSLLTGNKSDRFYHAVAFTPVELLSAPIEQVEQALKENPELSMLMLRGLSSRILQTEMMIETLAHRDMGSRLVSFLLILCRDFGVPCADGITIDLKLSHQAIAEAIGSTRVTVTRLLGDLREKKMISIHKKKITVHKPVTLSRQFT
Test: EMSA
Conditions: EMSA as in Muro-Pastor et al. 1999; buffer, salt, pH and temperature not given in the material

Sequence | binding
ATCGATACTCTCGCAACAACGAAAGAATAGTAGTTTCATCAACCTCTAAACCTTTATATCTCCATACCCCTACACCCTAAACCCATATTTTGAGGGTATAGCGTAAGAACCCTACACCCGTCAGCCTCTTCTCCCCCCATTGACATTTTTGAAATATTCTGAAAGATAGAGGCTGATTACCTCCGGGTATATCTTTTTTCGGTAAATTTTTTCAAAAAAACTGTGTTGCCTGTTACAATATTGTTAAGAAAAGTTGCCCGTTGCATTTTGGGAATACGCAGCCGGGTTTTAACTC (double strand) [nsrR1 promoter fragment WT (-239 to +50)] | binds
ATCGATACTCTCGCAACAACGAAAGAATAGTAGTTTCATCAACCTCTAAACCTTTATATCTCCATACCCCTACACCCTAAACCCATATTTTGAGGGTATAGCGTAAGAACCCTACACCCGTCAGCCTCTTCTCCCCCCATTGACATTTTTGAAATATTCTGAAAGATAGAGGCTGATTACCTCCGGGTATATCTTTTTTCGGTAAATTTTTTCAAAAAAACTGTGTTGCCTGTATGAATATTGTTAAGAAAAGTTGCCCGTTGCATTTTGGGAATACGCAGCCGGGTTTTAACTC (double strand) [nsrR1 promoter fragment, mutated NtcA site (TAC to ATG)] | no binding
